From patent US20240327512A1 (DUKE UNIVERSITY, published 2024)
Substitutions are numbered along the chain they refer to.

T1: human TREM2 (Triggering Receptor Expressed on Myeloid cells-2), wild-type (human, UniProt Q9NZC2 19-230)
T1 sequence (looked up): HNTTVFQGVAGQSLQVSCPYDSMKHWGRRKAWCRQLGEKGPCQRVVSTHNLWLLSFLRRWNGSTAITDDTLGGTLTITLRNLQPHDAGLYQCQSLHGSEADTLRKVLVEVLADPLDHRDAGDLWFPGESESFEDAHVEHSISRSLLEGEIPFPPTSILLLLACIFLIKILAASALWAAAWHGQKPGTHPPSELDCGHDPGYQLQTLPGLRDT

B1: antibody clone 9D10 (antibody, V domains shown)
VH: EVQLVESGGGLVQPGRSLKLSCAASGFTFSDYGMAWVRQAPTKGLEWVASISNSGGRTFYRDSVKGRFTVSRDNAKSTLYLQMDSLRSEGTATYYCTTIGGGSTFDYWGQGVMVTVSS
VL: DVVMTQTPPSLSVAIGQSVSISCKSSQSLVYSDGKTYLHWLLQSPGRSPKRLIYQVSNLGSGVPDRFSGTGSQKDFTLKISRVEAEDLGVYYCAQTTHFPPTFGSGTKLEIK
B2: antibody clone 7F12 (antibody, V domains shown)
VH: B1 VH with D31N, A49T, N53Y, F59Y, V70I, G90D, T91S, T98P, I99V
VL: B1 VL
B3: antibody clone 13F4 (antibody, V domains shown)
VH: B1 VH with Q3H, G26R, D31N, G66A, V70I, N74S, K76E, G90D
VL: B1 VL
B4: antibody clone 14B3 (antibody, V domains shown)
VH: B1 VH with T28S, D31N, S54N, V70I, D84H, G90D
VL: B1 VL with I21M, R47G
B5: antibody clone 21A3 (antibody, V domains shown)
VH: EVKLLESGGGLVQPGGSMRLSCAASGFTFTDFYMNWIRQPAGKAPEWLGLIRNKANGYTTQYNPSVKGRFTISRDNTQNMLYLQMNTLRGEDTATYYCARIGINNGGSLDYWGQGVMVTVSS
VL: DILINQSPASLTVSAGEKVTMSCKSSQSLLYSEKNQDYLAWYQQKPGQSPKLLMYGASYRHTGVPDRFTGSGSGTDFTLTISSVQAEDLADYYCEQTYSYPYTFGAGTKLELK
notes: Rat monoclonal IgG from hybridoma; also called TREMX antibody
B6: antibody clone 8A11 (antibody, V domains shown)
VH: B5 VH with A55T, N56K, Q61E, P64T, T87S, G90P, I103V
VL: B5 VL with N5I, E17A, K18R, K34N, S49F, M54I, Y59N
notes: as for B5
B7: antibody clone 10C3 (antibody, V domains shown)
VH: B5 VH with K43E, A44T, A55T, N56K, Q61E, T87S, G90P, I103T
VL: B5 VL with N5I, E17A, K18R, K34N, S49F, M54I, Y59N
notes: as for B5
B8: antibody clone 14D3 (antibody, V domains shown)
VH: B5 VH with S7F, K43R, A55T, N56K, Q61E, P64R, T87S, G90P, I103V
VL: B5 VL with N5I, E17A, K18R, K34N, S49F, M54I, Y59N
notes: as for B5
B9: antibody clone 7A12 (antibody, V domains shown)
VH: B5 VH
VL: B5 VL
notes: as for B5
B10: antibody clone 14D8 (antibody, V domains shown)
VH: B5 VH with Q61V
VL: B5 VL with A15T, K24R, S49F, M54I
notes: as for B5
B11: antibody clone 15C5 (antibody, V domains shown)
VH: B5 VH with N56Y, Q61E, N79D, G90A, N105Y
VL: B5 VL with M21V, K34S, S49F, M54I, D91H
notes: as for B5
B12: antibody clone 18F9 (antibody, V domains shown)
VH: B5 VH with A23V, A24V, P40A, A55V, T59R, Q61E, T77I, G90A
VL: B5 VL with K34N, S49F, M54I, Y59N
notes: as for B5
B13: antibody clone 1G6 (antibody, V domains shown)
VH: B5 VH with M18L, A23V, Y58F, Q61E, N79H, G90A
VL: B5 VL with A15T, K34N, N35K, S49F, M54I, Y59N, S82N, S83I
notes: as for B5

Target: T1, human TREM2 (Triggering Receptor …)
Experiment: cell-based or functional assay

Binder	decrease of TREM2 cleavage [%]	increase of the level of mature TREM2 [fold]
B1	~70	≤ 5
B2	~70	≤ 5
B3	~70	≤ 5
B4	~70	≤ 5

Target: T1, human TREM2 (Triggering Receptor …)
Experiment: hybridoma supernatant screen: peptide ELISA and detection of TREM2 on the cell surface
Description: Human TREM2-reactive hybridoma supernatants are screened for their ability to detect TREM2 on the cell surface of HEK293 Flp-In cells stably overexpressing human wild-type TREM2. This procedure is described in Kleinberger, G., et al., TREM2 mutations implicated in neurodegeneration impair cell surface transport and phagocytosis. Sci Transl Med, 2014. 6(243): p. 243. In particular, HEK293 Flp-In cells either expressing human full-length TREM2 or empty vector (control) are incubated with the respective TREM2-reactive supernatants. Binding of TREM2-reactive supernatants is visualized using isotype-specific antibodies. A detailed description of the generation and selection of monoclonal antibodies against the TREM2 cleavage site is given in the Examples.
A peptide comprising the amino acid sequence of residues 145-155 (SEQ ID NO:2) of human TREM2 or residues 153-162 (SEQ ID NO:3) of human TREM2 was synthesized and coupled at the N-terminus to ovalbumin or biotin (Peps4LS, Heidelberg, Germany). Rats were immunized subcutaneously (s.c.) and intraperitoneally (i.p.) with a mixture of 50 μg OVA-coupled peptide in […] PBS, 5 nmol CpG2006 (TIB MOLBIOL, Berlin, Germany), and […] incomplete Freund's adjuvant. After 6 weeks, a boost without Freund's adjuvant was given i.p. and s.c. 3 days before fusion. Fusion of the myeloma cell line P3X63-Ag8.653 with the rat immune spleen cells was performed using polyethylene glycol 1500 according to standard procedure (Koehler and Milstein, Nature. 1975, 256:495-497). After fusion, the cells were plated in 96-well plates using RPMI 1640 with 20% fetal calf serum, penicillin/streptomycin, glutamine, pyruvate, and non-essential amino acids supplemented with HAT HybriMax medium supplement (Sigma,). Hybridoma supernatants were tested in an enzyme-linked immunoassay using biotinylated peptides (0.2 μg/ml) comprising the amino acid sequence of residues 145-155 of human TREM2 or residues 153-162 of human TREM2 bound to avidin-coated plates. After blocking with PBS/2% FCS, hybridoma supernatants were added for 30 min. After one wash with PBS, bound antibodies were detected with a cocktail of HRP-conjugated mAbs against the four rat IgG isotypes. HRP was visualized with ready to use TMB substrate (1-Step™ Ultra TMB-ELISA, Thermo).

Binder	binding result
B5	binds
B6	binds
B7	binds
B8	binds
B9	binds
B10	binds
B11	binds
B12	binds
B13	binds
